In article PMC8855868:

Biological target: MeCP2 (human, UniProt P51608 1-486)
Test: MST

Sequence of MeCP2 (P51608 whole entry): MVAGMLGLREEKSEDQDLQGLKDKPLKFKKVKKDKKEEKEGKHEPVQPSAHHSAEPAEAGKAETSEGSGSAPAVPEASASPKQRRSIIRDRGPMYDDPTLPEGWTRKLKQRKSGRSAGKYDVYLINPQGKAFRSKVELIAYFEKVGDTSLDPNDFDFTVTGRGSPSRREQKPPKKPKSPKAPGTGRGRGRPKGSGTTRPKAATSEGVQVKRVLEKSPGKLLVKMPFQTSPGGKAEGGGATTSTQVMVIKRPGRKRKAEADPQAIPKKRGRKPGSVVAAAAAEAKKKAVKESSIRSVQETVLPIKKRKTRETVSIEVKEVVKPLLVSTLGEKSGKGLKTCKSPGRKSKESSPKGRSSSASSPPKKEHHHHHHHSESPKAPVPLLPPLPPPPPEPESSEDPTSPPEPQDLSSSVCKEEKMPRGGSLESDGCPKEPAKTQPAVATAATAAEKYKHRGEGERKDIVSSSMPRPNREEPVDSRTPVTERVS

B1: 20 bp mC (dsDNA)
DNA 1: ACTACCATCCGGACCAGAAG
DNA 2: CTTCTGGTCCGGATGGTAGT
modifications: 5mC at position 10 of strand 1 and position 10 of strand 2 (printed as X)
  binding result: binds
